According to the RNAGym collection of RNA variant scans (doi:10.1073/pnas.2313332121):
Variants at the floor of the assay were thinned out.

B1: TPR 5TU (parent)
chain: GGAUCUUCUCGAUCUAACAAAAAAGACAAAUCUGCCACAAAGCUUGAGAGCAUCUUCGGAUGCAGAGGCGGCAGCCUUCGGUGGCGCGAUAGCGCCAACGUUCUCAACUAUGACACGCAAAACGCGUGCUCCGUUGAAUGGAGUUUAUCAUG

Variants of: B1
Assay: polymerase ribozyme fitness, log enrichment relative to wild type (log ratio); higher = more active; in vitro selection for triplet polymerase activity
How it was run: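 For each subunit of a heterodimeric triplet polymerase ribozyme, a mutant library was built by PCR and transcribed, then taken through a single in vitro selection round in triplicate. Selection involved annealing to a biotinylated primer, the partner subunit and triplets, incubation frozen at −7 °C, gel excision of extended constructs, capture on streptavidin beads and RT-PCR. Genotypes were retained after Illumina sequencing of inputs and outputs only with ≥10 input reads and ≥1 read in each output. Fitness is defined as the logarithm of a genotype's enrichment relative to wild-type enrichment, using inverse-variance-weighted averages across replicates, with the logarithm taken to base 2.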

Row | Variant | polymerase ribozyme fitness (log ratio)
1 | U55G C57U C63G A66U G94C U104G | ≤ -4.2
2 | U55A C57A A60G A73U C132U U145G | -2.26
3 | U55C G74C | -3.64
4 | C54U U56C | -0.57
5 | U55A G84A G117U | -0.634
6 | U55C U78C G117U U135G U151G | ≤ -4.2
7 | U55A A73G A89G G136A | -0.934
8 | C54U G59U G74A | -3.62
9 | C54U G124C | -0.768
10 | U55A G58C | -0.661
11 | U55A C72A A119U | ≤ -4.2
12 | U55C C75G C76U G80A C87G C108U | ≤ -4.2
13 | U55A U145C | 0.505
14 | U55A C87G C149G | ≤ -4.2
15 | U55A A115G G124U | -0.932
16 | C54U C87U A115U | -1.85
17 | U55A A73U C75U C93U G100A U139A U144G | ≤ -4.2
18 | C54U G84C G100C C108A A113U G141U | ≤ -4.2
19 | U55A G58A A89C A120U U134C | 0.161
20 | U55G C63U G81U C87G U102G C116G A150C | ≤ -4.2
21 | U55A C125A | -0.912

Row | Variant | polymerase ribozyme fitness (log ratio)
22 | C54U C57U G83C | -1.34
23 | C54U C85U C129U | -0.134
24 | C54U C85G | -2.49
25 | C54U C85A | -2.3
26 | U55A C103U | -0.726
27 | U55A C103G | -2.22
28 | U55A A73C C87U G92A | -2.04
29 | U55A A64C | ≤ -4.2
30 | U55C A73U A97U U144G | -1.48
31 | U55A C69U G94C | -3.36
32 | C54U C149U | -0.259
33 | C54U C87U | -1.08
34 | C54U C87G | ≤ -4.2
35 | U55A A66C U77A C87A | ≤ -4.2
36 | U55G C57G A97G A106C | -3
37 | U55A A60G A137C | -3
38 | U55C G92C | -0.135
39 | C54U C96U C118U | -0.868
40 | U55A A64C C85U U146G | ≤ -4.2
41 | U55A G84U G128U U134C | -4.17
42 | C54U C63G G67C G143A | ≤ -4.2

Row | Variant | polymerase ribozyme fitness (log ratio)
43 | C54U G84A U146G | -1.56
44 | U55A G81C C118G G141A U146A | -2.94
45 | C54U U56A C118U | -0.674
46 | U55A G80A | -1.65
47 | C54U C93U U144C U146G | -3.87
48 | U55G A137C | -3.36
49 | U55A A106C C125G | -1.63
50 | U55G A60U G83C A137U G141U | ≤ -4.2
51 | C54U G74C | -3.95
52 | U55A A119G U139G | 0.219
53 | C54U G94C G124A | -1.04
54 | U55A C57U G84A G141C | -0.559
55 | U55A A89U U102G | ≤ -4.2
56 | U55A A60G C69U G92U A147U | -0.244
57 | C54U G84A C105A | -0.565
58 | U55A A60U C118G A119C | -0.427
59 | C54U G65U A73U A91U C108G | ≤ -4.2
60 | U55A G124U U139G | 0.0477
61 | C54U G81U G83U G152U | -4.17
62 | U55A C72U C76U U78C G84A | -2.57
63 | U55A C57G C87G C93U U104G | ≤ -4.2

Row | Variant | polymerase ribozyme fitness (log ratio)
64 | U55A U61A A97C C103A C125A | ≤ -4.2
65 | U55A G86U U145G | -1.41
66 | U55A U56A G59A | 0.199
67 | C54U C69A U144C | -3.89
68 | U55A C129A | -2.11
69 | U55A C85A C105U U134A | ≤ -4.2
70 | C54U C95A G126U U148A | ≤ -4.2
71 | U55A C57U C85U A91G G141U | -1.7
72 | U55A C57U A66C G94A A106G G128U G140A | ≤ -4.2
73 | C54U G59U | 0.271
74 | U55G A60G C69U A91G U144A | -2.3
75 | C54U G86U C93A A97U A120G | -1.29
76 | U55A U135A | -1.74
77 | U55A A73G | -0.446
78 | U55A C87U U146A | -1.36
79 | U55A C75G U77G A107U | ≤ -4.2
80 | U55A A147C | -1.3
81 | C54U C63A C149U | -1.67
82 | U55A A66U G74A C75A C79G G88C C95G A137U | ≤ -4.2
83 | C54U U134A | -2.84
